# Measured values from publication PMC10415149, “The role of catalytic and regulatory domains of human PrimPol in DNA binding and synthesis”.
# T1: PrimPol1-475 (RBM deleted) (Homo sapiens, UniProt Q96LW4 1-475)
# T1 sequence: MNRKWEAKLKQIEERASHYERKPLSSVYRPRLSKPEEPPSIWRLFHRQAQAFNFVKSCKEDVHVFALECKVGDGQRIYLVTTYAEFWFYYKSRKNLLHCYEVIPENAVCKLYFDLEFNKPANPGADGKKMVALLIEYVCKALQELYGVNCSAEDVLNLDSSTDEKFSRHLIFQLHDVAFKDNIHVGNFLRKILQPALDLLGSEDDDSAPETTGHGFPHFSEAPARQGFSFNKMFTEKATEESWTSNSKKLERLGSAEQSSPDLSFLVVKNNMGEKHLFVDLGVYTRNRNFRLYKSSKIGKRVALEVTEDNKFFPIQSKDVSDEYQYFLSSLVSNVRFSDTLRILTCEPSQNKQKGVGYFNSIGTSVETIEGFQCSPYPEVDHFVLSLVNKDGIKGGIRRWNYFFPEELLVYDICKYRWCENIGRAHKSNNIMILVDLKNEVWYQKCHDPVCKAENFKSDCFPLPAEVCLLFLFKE
# T2: PrimPol WT (Homo sapiens, UniProt Q96LW4 1-560)
# T2 sequence: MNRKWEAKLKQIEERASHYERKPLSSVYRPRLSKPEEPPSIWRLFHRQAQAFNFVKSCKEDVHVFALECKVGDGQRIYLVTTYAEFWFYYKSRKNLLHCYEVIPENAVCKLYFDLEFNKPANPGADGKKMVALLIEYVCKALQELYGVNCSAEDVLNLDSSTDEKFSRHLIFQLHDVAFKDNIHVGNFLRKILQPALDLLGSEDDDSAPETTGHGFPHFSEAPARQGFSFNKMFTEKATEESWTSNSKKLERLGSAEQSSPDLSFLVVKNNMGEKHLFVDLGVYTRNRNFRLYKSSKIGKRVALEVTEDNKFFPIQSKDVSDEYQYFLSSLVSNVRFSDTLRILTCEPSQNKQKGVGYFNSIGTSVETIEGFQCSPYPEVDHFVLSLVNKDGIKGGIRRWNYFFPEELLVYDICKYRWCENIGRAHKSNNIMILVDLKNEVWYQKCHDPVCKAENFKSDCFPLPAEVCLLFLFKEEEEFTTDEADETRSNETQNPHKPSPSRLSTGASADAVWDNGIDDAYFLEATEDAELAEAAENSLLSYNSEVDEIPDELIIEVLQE
# T3: PrimPol1-363 (NTD);PrimPol363-560 (CTD) (Homo sapiens;Homo sapiens, UniProt Q96LW4;Q96LW4 1-363;363-560, |)
# T3 sequence 1: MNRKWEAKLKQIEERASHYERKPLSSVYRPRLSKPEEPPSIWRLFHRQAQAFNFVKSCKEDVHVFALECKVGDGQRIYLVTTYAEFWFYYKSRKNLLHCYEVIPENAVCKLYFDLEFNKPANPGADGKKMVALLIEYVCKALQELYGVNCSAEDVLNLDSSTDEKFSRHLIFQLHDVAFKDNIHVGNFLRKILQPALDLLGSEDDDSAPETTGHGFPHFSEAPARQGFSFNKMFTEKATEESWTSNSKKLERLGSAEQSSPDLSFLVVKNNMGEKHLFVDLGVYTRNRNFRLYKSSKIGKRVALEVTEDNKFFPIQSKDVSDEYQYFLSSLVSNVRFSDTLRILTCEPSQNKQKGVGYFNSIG
# T3 sequence 2: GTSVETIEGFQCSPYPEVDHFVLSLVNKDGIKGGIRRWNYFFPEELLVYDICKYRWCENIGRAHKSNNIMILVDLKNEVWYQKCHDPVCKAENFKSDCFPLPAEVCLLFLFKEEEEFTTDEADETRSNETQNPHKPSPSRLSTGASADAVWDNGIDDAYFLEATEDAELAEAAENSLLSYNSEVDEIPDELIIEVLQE
# T4: PrimPol363-560 (CTD) (Homo sapiens, UniProt Q96LW4 363-560)
# T4 sequence: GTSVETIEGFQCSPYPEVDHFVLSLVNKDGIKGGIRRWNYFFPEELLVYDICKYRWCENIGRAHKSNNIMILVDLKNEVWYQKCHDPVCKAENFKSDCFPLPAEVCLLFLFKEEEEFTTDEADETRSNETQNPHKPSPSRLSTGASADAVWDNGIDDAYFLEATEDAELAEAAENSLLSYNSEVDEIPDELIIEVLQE
# T5: PrimPol1-363 (NTD) (Homo sapiens, UniProt Q96LW4 1-363)
# T5 sequence: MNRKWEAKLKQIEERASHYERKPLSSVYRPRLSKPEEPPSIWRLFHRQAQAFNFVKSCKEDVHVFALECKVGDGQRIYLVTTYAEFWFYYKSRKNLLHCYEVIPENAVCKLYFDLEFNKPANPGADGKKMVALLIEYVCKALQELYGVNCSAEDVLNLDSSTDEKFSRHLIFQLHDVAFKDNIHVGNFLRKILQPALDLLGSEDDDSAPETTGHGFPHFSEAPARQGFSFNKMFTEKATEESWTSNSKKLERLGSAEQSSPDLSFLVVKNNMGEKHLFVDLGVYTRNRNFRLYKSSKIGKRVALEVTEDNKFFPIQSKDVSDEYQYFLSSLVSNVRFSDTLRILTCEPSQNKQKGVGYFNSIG
# How the values were obtained:
# [1] = target: T1, PrimPol1-475 (RBM deleted); assay: EMSA; 1 mM Mn2+; EMSA: 40 mM HEPES pH 7.0, 50 mM KCl, 1 mM DTT, 5% glycerol, 0.1 mg/ml BSA, 1 mM MnCl2, 300 nM DNA, 24 C 20 min then ice (RPA assays: 50 nM DNA, 25 nM RPA, 8 C); 5% native PAGE, 0.5x Tris-glycine pH 8.3, 4 C; details: protein: recombinant; tags: N-terminal SUMO-HIS10; label: Cy5 at 5' of template; template 5' overhang 1 nt, 3' overhang 11 nt
# PrimPol WT [2] = target: T2, PrimPol WT; assay: as above; details: protein: recombinant; tags: N-terminal SUMO-HIS10; label: Cy5 at 5' of template; template 5' overhang 1 nt, 3' overhang 11 nt
# [3] = target: T3, PrimPol1-363 (NTD);PrimPol363-560 (CTD); assay: EMSA; 1 mM Mn2+; separate NTD and CTD mixed; EMSA: 40 mM HEPES pH 7.0, 50 mM KCl, 1 mM DTT, 5% glycerol, 0.1 mg/ml BSA, 1 mM MnCl2, 300 nM DNA, 24 C 20 min then ice (RPA assays: 50 nM DNA, 25 nM RPA, 8 C); 5% native PAGE, 0.5x Tris-glycine pH 8.3, 4 C; details: protein: recombinant;recombinant, tags: N-terminal SUMO-HIS10;N-terminal SUMO-HIS10, copies: 1;1
# PrimPol WT;RPA = PrimPol WT;RPA (Homo sapiens;Homo sapiens, UniProt Q96LW4;P27694;P15927;P35244 1-560;1-616;1-270;1-121, |); assay: EMSA; PrimPol added to preformed RPA:DNA; 1 mM Mn2+, ATP, dNTPs, 8 C; EMSA: 40 mM HEPES pH 7.0, 50 mM KCl, 1 mM DTT, 5% glycerol, 0.1 mg/ml BSA, 1 mM MnCl2, 300 nM DNA, 24 C 20 min then ice (RPA assays: 50 nM DNA, 25 nM RPA, 8 C); 5% native PAGE, 0.5x Tris-glycine pH 8.3, 4 C; details: protein: recombinant;recombinant; tags: N-terminal SUMO-HIS10;; copies: 1;1;1;1; label: 32P
# [4] = target: T1, PrimPol1-475 (RBM deleted); assay: EMSA; 1 mM Mn2+, 1 mM ATP, 200 uM dNTPs, 8 C; EMSA: 40 mM HEPES pH 7.0, 50 mM KCl, 1 mM DTT, 5% glycerol, 0.1 mg/ml BSA, 1 mM MnCl2, 300 nM DNA, 24 C 20 min then ice (RPA assays: 50 nM DNA, 25 nM RPA, 8 C); 5% native PAGE, 0.5x Tris-glycine pH 8.3, 4 C; details: protein: recombinant; tags: N-terminal SUMO-HIS10; label: 32P
# PrimPol WT [5] = target: T2, PrimPol WT; assay: as above; details: protein: recombinant; tags: N-terminal SUMO-HIS10; label: 32P
# PrimPol363-560 (CTD) = target: T4, PrimPol363-560 (CTD); assay: EMSA; 1 mM Mn2+, 1-3 uM protein; EMSA: 40 mM HEPES pH 7.0, 50 mM KCl, 1 mM DTT, 5% glycerol, 0.1 mg/ml BSA, 1 mM MnCl2, 300 nM DNA, 24 C 20 min then ice (RPA assays: 50 nM DNA, 25 nM RPA, 8 C); 5% native PAGE, 0.5x Tris-glycine pH 8.3, 4 C; details: protein: recombinant; tags: N-terminal SUMO-HIS10; label: 5' Cy5
# PrimPol1-363 (NTD) = target: T5, PrimPol1-363 (NTD); assay: as above; details: protein: recombinant; tags: N-terminal SUMO-HIS10; label: 5' Cy5
# Sequence of PrimPol WT;RPA (P27694 whole entry, chain 2 of 3): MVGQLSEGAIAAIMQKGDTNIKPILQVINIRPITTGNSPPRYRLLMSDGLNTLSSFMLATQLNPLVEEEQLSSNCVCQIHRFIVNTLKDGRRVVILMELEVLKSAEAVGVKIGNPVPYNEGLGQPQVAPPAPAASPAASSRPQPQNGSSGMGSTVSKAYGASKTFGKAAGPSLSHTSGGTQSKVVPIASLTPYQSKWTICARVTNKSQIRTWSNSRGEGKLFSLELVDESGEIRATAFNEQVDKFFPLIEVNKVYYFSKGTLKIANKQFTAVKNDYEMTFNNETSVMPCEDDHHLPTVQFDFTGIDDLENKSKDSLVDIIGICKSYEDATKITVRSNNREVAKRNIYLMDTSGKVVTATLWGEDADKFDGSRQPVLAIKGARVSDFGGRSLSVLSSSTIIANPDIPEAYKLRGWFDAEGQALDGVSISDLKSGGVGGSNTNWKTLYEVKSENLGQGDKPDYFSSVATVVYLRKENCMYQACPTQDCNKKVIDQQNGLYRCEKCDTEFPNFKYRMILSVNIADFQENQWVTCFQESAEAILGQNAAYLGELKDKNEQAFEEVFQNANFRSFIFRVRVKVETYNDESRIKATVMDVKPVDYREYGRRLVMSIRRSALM
# Sequence of PrimPol WT;RPA (P15927 whole entry, chain 3 of 3): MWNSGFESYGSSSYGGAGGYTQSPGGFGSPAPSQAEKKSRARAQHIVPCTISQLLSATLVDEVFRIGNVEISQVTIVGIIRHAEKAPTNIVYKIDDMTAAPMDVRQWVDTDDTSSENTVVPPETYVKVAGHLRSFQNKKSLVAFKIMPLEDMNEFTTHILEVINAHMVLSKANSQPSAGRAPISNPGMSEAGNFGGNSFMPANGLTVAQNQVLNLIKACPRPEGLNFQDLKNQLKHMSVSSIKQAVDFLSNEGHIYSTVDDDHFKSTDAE
# Sequence of PrimPol WT;RPA (P35244 whole entry, chain 4 of 3): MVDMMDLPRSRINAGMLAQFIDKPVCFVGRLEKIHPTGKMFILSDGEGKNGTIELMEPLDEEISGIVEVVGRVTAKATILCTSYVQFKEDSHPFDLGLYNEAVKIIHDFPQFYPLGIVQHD
binder,measurement,setting,value
"p-p-p-12/Cy5-Acctg24 (mixed, primer 5'-triphosphate; primer nt 1 is ribo-A, rest DNA) DNA 1: AAAAAAAAAACCTGAAAAAAAAAA DNA 2: AGGTTTTTTTTT",Kd,[1],90 ± 10 nM
same,Kd,PrimPol WT [2],490 ± 130 nM
Template-55/Primer-18 (dsDNA) DNA 1: GACTACATTTCATCTGGCTTGGGCTTCATCGTTGTCGCAGACCTGGTGGATACCG DNA 2: CGGTATCCACCAGGTCTG,binding result,"[3]; label: 5' 32P on Primer-18, template 5' overhang 37 nt",binds
Acctg55 (ssDNA) DNA: AAAAAAAAAAAAAAAAAAAAAAAAAAAAAAAAAAAAAAAAACCTGAAAAAAAAAA,binding result,PrimPol WT;RPA,binds
same,binding result,[4],binds
same,binding result,PrimPol WT [5],binds
AAAAAAAAAACCTGAAAAAAAAAA (ssDNA) [Cy5-Acctg24],binding result,PrimPol363-560 (CTD),no binding
same,binding result,PrimPol1-363 (NTD),binds
same,binding result,[3]; label: 5' Cy5,no binding
